Reference: FireProtDB (doi:10.1021/bi00116a007)

Details: Escherichia coli (strain K12); pH 7.5; 25 °C; Urea; DSC; potassium-HEPES 40 mM; reversible: yes; whole UniProt chain shown

B1: Aspartate aminotransferase wild type, P00509 (protein)
chain: MFENITAAPADPILGLADLFRADERPGKINLGIGVYKDETGKTPVLTSVKKAEQYLLENETTKNYLGIDGIPEFGRCTQELLFGKGSALINDKRARTAQTPGGTGALRVAADFLAKNTSVKRVWVSNPSWPNHKSVFNSAGLEVREYAYYDAENHTLDFDALINSLNEAQAGDVVLFHGCCHNPTGIDPTLEQWQTLAQLSVEKGWLPLFDFAYQGFARGLEEDAEGLRAFAAMHKELIVASSYSKNFGLYNERVGACTLVAADSETVDRAFSQMKAAIRANYSNPPAHGASVVATILSNDALRAIWEQELTDMRQRIQRMRQLFVNTLQEKGANRDFSFIIKQNGMFSFSGLTKEQVLRLREEFGVYAVASGRVNVAGMTPDNMAPLCEAIVAVL
With B1 the denaturant m value was 2.56 kcal/mol/M, the “denaturant midpoint (higher = more stable)” value was 3.89 M and the unfolding free energy was 9.96 kcal/mol.
